Laboratory results published in US20110123532A1 (ONCOMED PHARMACEUTICALS, published 2011).
Each block holds one binder with its values, some of them ahead of it.

Assays:
[1] = biological target: T1, full length human DLL4 on transfected human 293 HEK cells (human, UniProt Q9NR61 27-685); assay: flow cytometry on human 293 HEK cells transfected with full length human DLL4 and GFP; goat anti-human IgG H/L-PE
T1 construct: whole, on cells; also called hDLL4 transfected cells; human DLL4 transfected cells

[2] = biological target: T2, human VEGF (human, UniProt P15692-4 27-191); assay: Biacore dual targeting assay, high density VEGF surface, antibody first, then DLL4-Fc
T2 construct: Immobilised on a CM5 chip for Biacore; the same name is used for the rhVEGF of the HUVEC assay; also called hVEGF; rhVEGF
T2 sequence (P15692 other isoform, or with tags, fused parts or gaps limits assumed): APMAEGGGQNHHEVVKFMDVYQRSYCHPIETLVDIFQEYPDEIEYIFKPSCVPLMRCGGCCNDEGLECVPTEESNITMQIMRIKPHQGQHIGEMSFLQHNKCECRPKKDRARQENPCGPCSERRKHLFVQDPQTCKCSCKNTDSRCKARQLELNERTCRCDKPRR

[3] = biological target: T2, human VEGF; assay: SPR (Biacore), VEGF surface
[4] = biological target: T2, human VEGF; assay: SPR (Biacore), VEGF surface; reference 219R0302 IgG

- binding result [2]: binds
B1: Homo 13A (219R02) (antibody, human IgG2, kappa, V domains shown)
VH: QVQLKQSGAELVKPGASVKLSCKASGYTFTNYWMHWVKLRPGQGFEWIGDINPSNGGTSYNEKFKRKATLTVDKSSSTAYMQLSSLTSEDSAVYYCTIHYYDNSYAMDYWGQGTSVTVSS
VL: DIVMTQSPDSLAVSLGERATISCRASESVDNYGISFMKWFQQKPGQPPKLLIYAASNQGSGVPDRFSGSGSGTDFTLTISSLQAEDVAVYYCQQSKEVPWTFGGGTKVEIKR
notes: also called 219R02 13A Homo; 219R0202 HC (with 13A mutation) expressed only with 21M18 LC
- binding result [1]: no binding (tested: log(nM) about 1.8 (about 60 nM))

- Kd [3]: 7.6 nM
- fold weaker binding affinity than 219R0302 [4]: ~4 fold
B2: 219R0302-21M18 single gene bispecific antibody (SGBSP) (bispecific antibody, human IgG2, kappa)
chain 1: not shown
chain 2: DIVMTQSPDSLAVSLGERATISCRASESVDNYGISFMKWFQQKPGQPPKLLIYAASNQGSGVPDRFSGSGSGTDFTLTISSLQAEDVAVYYCQQSKEVPWTFGGGTKVEIKRTVAAPSVFIFPPSDEQLKSGTASVVCLLNNFYPREAKVQWKVDNALQSGNSQESVTEQDSKDSTYSLSSTLTLSKADYEKHKVYACEVTHQGLSSPVTKSFNRGECGGGGSGGGGSGGGGSGGGGSGGGGSGGGGSQVQLVQSGAEVKKPGASVKISCKASGYSFTAYYIHWVKQAPGQGLEWIGYISSYNGATNYNQKFKGRVTFTTDTSTSTAYMELRSLRSDDTAVYYCARDYDYDVGMDYWGQGTLVTVSSASTKGPSVFPLAPCSRSTSESTAALGCLVKDYFPEPVTVSWNSGALTSGVHTFPAVLQSSGLYSLSSVVTVPSSNFGTQTYTCNVDHKPSNTKVDKTVERKCCVECPPCPAPPVAGPSVFLFPPKPKDTLMISRTPEVTCVVVDVSHEDPEVQFNWYVDGVEVHNAKTKPREEQFNSTFRVVSVLTVVHQDWLNGKEYKCKVSNKGLPAPIEKTISKTKGQPREPQVYTLPPSREEMTKNQVSLTCLVEGFYPSDIAVEWESNGQPENNYKTTPPMLDSDGSFFLYSELTVDKSRWQQGNVFSCSVMHEALHNHYTQKSLSLSPGK
notes: Heterodimer of two single-gene chains, anti-VEGF arm (13A) and anti-DLL4 arm (13B), IgG2; also called 219R0302_21M18 SGBSP; 219R0302-21M18 SGBSP
